From PMC8550936 (2021)

Target: Venezuelan equine encephalitis virus (VEEV) virus-like particles (Venezuelan equine encephalitis virus, …, UniProt P09592 813-1254)
Experiment: SPR

B1: LDLRAD3(D1), cleaved monomeric ectodomain of mouse low-density lipoprotein receptor class A domain-containing 3, domain 1 (domain or fragment)
chain: not shown
Kd: 58.2 nM
